The record followed here is patent US6699869 (MYRIAD GENETICS, dated 2004).

What all share (assay): cell-based or functional assay
Test [1] addresses bovine factor Xa (from Sigma) (bovine, UniProt P00743 41-492, limits assumed).
The target of a further test is Plasmin.
Test [2] deals with human Factor VIIa (FVIIa) and human tissue factor (TF) complex (human, UniProt P08709 61-466; P13726 33-251, limits assumed).
Test [3] deals with bovine trypsin (from Sigma) (bovine, UniProt P00760 24-246).
Test [4] addresses Tissue Plasminogen Activator (t-PA).
Test [5] addresses human urokinase (from Sigma) (human, UniProt P00749 21-431, limits assumed).

Non-standard residues stand in square brackets, D forms with d. No end group written: not given here. *: point of attachment. CH2Cl = ClC*

bovine trypsin (from Sigma), sequence (P00760 24-246): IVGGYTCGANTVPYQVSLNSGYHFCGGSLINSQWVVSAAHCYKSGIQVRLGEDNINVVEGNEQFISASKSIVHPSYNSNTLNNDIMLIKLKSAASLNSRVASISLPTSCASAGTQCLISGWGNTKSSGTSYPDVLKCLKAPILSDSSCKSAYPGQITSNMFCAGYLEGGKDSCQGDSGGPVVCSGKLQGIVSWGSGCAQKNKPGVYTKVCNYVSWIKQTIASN
bovine factor Xa (from Sigma), sequence (P00743 41-492 limits assumed): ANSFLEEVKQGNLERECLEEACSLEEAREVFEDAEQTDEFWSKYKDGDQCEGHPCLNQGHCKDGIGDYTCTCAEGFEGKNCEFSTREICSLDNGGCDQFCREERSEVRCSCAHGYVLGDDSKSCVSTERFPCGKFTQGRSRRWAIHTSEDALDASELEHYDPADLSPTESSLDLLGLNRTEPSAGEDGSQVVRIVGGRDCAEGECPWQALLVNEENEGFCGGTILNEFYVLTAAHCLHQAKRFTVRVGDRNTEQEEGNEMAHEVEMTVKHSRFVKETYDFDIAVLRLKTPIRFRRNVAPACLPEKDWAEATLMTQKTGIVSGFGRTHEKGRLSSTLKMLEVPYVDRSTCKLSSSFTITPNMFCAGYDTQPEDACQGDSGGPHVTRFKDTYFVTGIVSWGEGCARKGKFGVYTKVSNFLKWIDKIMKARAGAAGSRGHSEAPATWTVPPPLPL

Take [dF]-Pro-Arg-CH2Cl [(D)FPR-CH2Cl]: the “IC50 (nM), inhibition of chromogenic substrate hydrolysis by the enzyme” value in test [1] was found to be 165 nM; with Plasmin, 699 nM; in test [2], 200 nM; in test [3], 212 nM; in test [4] it was 106 nM; in test [5], 508 nM.
